Common to all, as to test: double-antibody sandwich ELISA on the mixture of 13 HPV VLPs
In one assay the target is T1, HPV45 VLP protein (human papillomavirus type 45; human …, UniProt P36741 1-478; P06416 474-499).
T1 construct: range 1-478;range 474-499; Complete VLP protein used as coating protein; also called HPV45L1(1-478L)+HPV33L1(474K-499K)
T1 sequence: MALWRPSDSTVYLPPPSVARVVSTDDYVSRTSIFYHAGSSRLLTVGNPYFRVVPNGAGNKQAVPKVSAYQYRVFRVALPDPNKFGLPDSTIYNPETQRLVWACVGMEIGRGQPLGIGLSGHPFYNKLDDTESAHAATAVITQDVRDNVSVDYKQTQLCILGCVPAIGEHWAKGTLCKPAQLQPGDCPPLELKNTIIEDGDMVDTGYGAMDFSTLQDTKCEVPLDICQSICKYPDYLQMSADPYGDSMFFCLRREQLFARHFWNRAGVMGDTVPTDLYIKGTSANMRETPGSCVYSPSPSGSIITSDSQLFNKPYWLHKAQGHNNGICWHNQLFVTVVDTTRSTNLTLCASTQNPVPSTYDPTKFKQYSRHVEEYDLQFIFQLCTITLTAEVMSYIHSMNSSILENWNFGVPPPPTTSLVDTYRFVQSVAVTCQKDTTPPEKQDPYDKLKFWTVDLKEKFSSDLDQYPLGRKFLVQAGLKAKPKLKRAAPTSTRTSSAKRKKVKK

In another assay the target is T2, HPV16 VLP protein (human papillomavirus type 16, UniProt P03101 1-474).
T2 construct: Complete VLP protein; no limits of the construct printed, whole entry named; also called HPV-16L1
T2 sequence: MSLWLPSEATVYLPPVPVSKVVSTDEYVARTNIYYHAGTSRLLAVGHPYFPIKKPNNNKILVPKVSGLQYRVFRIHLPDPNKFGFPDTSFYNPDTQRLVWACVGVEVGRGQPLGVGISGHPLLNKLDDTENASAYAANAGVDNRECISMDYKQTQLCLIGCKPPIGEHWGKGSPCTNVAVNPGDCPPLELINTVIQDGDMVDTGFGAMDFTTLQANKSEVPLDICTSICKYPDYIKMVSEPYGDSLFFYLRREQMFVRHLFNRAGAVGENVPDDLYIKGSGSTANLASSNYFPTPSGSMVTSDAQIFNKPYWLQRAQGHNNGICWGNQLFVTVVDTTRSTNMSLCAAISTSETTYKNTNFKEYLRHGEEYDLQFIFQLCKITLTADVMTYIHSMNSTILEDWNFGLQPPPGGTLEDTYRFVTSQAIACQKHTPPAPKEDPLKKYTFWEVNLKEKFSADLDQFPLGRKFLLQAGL

In the next assay the target is T3, HPV35 VLP protein (human papillomavirus type 35; human …, UniProt P27232 1-472; P06416 474-499).
T3 construct: range 1-472;range 474-499; Complete VLP protein used as coating protein; also called HPV35L1(1-472L)+HPV33L1(474K-499K)
T3 sequence: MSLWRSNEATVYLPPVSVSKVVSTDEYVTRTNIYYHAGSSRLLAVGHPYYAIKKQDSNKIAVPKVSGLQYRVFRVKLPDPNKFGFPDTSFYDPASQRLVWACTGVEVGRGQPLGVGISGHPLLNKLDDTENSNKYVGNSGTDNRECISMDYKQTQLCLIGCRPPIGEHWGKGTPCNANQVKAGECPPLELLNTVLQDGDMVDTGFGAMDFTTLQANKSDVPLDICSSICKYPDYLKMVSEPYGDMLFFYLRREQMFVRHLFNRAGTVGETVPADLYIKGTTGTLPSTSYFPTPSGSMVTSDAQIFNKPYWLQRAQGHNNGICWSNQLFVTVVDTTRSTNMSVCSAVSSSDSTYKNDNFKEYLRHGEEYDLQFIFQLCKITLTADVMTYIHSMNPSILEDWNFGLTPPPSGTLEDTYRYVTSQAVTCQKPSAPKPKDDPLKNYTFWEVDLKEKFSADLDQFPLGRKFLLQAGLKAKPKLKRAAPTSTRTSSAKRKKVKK

B1: monoclonal antibody HPV6-R003 (antibody, V domains shown)
VH: QQQLEESGGGLVKPGGTLTLTCKASGIDLSNYYMCWVRQAPGKGLEWIGCIYTGSGRTYYASWAKGRFTISKASSTTVTLQMTSLTAADTATYFCARDYLGWRASNIWGPGTLVTVSS
VL: ELVMTQTPSSVSAAVGGTVTINCQASQSVYSNNLVWYQQKPGQPPKLLIYGASTLASGVPSRFKGSGSGTQFTLTISDVVCDDAATYYCGGYVSDSTDGTAFGGGTEVVVKG
notes: here built from variable plus constant region so that the signal peptides are left out; In the sandwich ELISA the same antibody is used as coating antibody and, labelled with horseradish peroxidase, as detection antibody; also called anti-HPV6 L1 protein antibody
As for B1, the binding result with HPV45 VLP protein was “no binding (tested: mixture 50 ng/mL, each subtype 1/13)”; with HPV16 VLP protein, “no binding (tested: mixture 50 ng/mL, each subtype 1/13)”; with HPV35 VLP protein, “no binding (tested: mixture 50 ng/mL, each subtype 1/13)”.

The values are drawn from patent publication US20240158474A1 (SINO BIOLOGICAL, published 2024).
